Results reported in publication PMC10439943, “SCF^RMF mediates degradation of the meiosis-specific recombinase DMC1” (Nature Communications, 2023).

T1: SUMO-HIS-RMF2 (Arabidopsis thaliana, UniProt Q9FGB8 1-355)
T1 construct: RMF2, F-box protein, Arabidopsis thaliana, AGI AT5G36000; CDS cloned into pSUMO (on pET28a); also called AT5G36000; not shown: SUMO, N-terminal, kept; HIS, N-terminal, kept
T1 sequence (looked up): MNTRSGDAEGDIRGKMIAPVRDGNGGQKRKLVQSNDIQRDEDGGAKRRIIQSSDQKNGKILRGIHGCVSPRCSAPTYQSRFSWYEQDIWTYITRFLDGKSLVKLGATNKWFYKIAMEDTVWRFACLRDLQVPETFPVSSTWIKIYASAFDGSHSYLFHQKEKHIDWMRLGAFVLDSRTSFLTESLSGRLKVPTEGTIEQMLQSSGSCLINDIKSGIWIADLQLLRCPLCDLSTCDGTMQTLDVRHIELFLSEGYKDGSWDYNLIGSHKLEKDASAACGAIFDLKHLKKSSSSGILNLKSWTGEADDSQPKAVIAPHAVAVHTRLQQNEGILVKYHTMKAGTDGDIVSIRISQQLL

T2: SUMO-HIS-RMF1 (Arabidopsis thaliana, UniProt Q9M365 1-359)
T2 construct: RMF1, F-box protein, Arabidopsis thaliana, AGI AT3G61730; CDS cloned into pSUMO (on pET28a); also called AT3G61730; not shown: SUMO, N-terminal, kept; HIS, N-terminal, kept
T2 sequence (looked up): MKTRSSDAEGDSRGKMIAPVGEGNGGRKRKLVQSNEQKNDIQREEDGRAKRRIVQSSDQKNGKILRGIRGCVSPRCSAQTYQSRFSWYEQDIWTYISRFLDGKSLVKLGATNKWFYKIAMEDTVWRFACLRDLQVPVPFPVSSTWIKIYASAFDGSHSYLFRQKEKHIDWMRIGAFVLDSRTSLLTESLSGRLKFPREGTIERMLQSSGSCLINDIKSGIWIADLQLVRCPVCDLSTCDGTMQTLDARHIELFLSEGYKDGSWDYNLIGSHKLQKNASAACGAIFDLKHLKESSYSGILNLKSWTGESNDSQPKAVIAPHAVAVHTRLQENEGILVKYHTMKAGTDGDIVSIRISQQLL

T3: MBP-RMF2 (Arabidopsis thaliana, UniProt Q9FGB8 1-355)
T3 construct: RMF2, F-box protein, Arabidopsis thaliana, AGI AT5G36000; CDS cloned into pMAL-c5X; also called AT5G36000; source: E. coli Rosetta (DE3) or BL21 (DE3) pLysS, purified (Amylose Resin); not shown: MBP, N-terminal, kept
T3 sequence (looked up): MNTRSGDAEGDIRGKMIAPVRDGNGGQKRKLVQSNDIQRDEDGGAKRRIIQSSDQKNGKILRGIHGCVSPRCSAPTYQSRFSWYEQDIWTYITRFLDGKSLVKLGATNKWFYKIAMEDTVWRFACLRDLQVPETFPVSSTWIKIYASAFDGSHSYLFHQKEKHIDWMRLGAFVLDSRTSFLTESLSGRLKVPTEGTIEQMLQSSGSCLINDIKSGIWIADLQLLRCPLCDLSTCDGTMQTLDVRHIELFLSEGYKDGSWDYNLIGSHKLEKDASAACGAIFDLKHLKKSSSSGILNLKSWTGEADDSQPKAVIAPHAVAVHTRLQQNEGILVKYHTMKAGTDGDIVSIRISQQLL

T4: MBP-RMF1 (Arabidopsis thaliana, UniProt Q9M365 1-359)
T4 construct: RMF1, F-box protein, Arabidopsis thaliana, AGI AT3G61730; CDS cloned into pMAL-c5X; also called AT3G61730; source: E. coli Rosetta (DE3) or BL21 (DE3) pLysS, purified (Amylose Resin); not shown: MBP, N-terminal, kept
T4 sequence (looked up): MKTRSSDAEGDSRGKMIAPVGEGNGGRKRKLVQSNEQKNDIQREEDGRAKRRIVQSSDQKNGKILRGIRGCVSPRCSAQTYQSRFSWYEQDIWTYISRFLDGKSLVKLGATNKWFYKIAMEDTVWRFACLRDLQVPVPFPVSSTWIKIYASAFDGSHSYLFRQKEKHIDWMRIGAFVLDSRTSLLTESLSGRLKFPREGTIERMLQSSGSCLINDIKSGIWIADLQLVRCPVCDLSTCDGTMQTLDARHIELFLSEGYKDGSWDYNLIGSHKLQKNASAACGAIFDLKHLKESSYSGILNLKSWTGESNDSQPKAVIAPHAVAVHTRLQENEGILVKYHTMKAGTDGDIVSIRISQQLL


Tests used:
Assay in all cases: pull-down; 2 µg of each GST-, HIS- or MBP-tagged protein mixed in 50 mM Tris-HCl pH 7.4, 150 mM NaCl, 25 mM imidazole, 0.5% NP-40, 4 °C 4 h; HIS-tagged protein captured on Ni-NTA HIS Bind Resin; western blot
Settings in all cases: both partners purified
SUMO-HIS-RMF2 = target: T1, SUMO-HIS-RMF2
SUMO-HIS-RMF1 = target: T2, SUMO-HIS-RMF1
MBP-RMF2 = target: T3, MBP-RMF2
MBP-RMF1 = target: T4, MBP-RMF1

Binder	binding result (SUMO-HIS-RMF2)	binding result (SUMO-HIS-RMF1)	binding result (MBP-RMF2)	binding result (MBP-RMF1)
GST-ASK1 (natural protein, Arabidopsis thaliana, UniProt Q39255 1-160, looked up, ASK1 (Arabidopsis Skp1-like1), Arabidopsis thaliana, AGI AT1G75950; CDS cloned into pGEX 4T-1; also called AT1G75950; not shown: GST, N-terminal, kept) MSAKKIVLKSSDGESFEVEEAVALESQTIAHMVEDDCVDNGVPLPNVTSKILAKVIEYCKRHVEAAASKAEAVEGAATSDDDLKAWDADFMKIDQATLFELILAANYLNIKNLLDLTCQTVADMIKGKTPEEIRTTFNIKNDFTPEEEEEVRRENQWAFE	binds	binds	–	–
SUMO-HIS-DMC1 (natural protein, Arabidopsis thaliana, UniProt Q39009 1-344, looked up, DMC1, meiosis-specific RecA-family recombinase, Arabidopsis thaliana, AGI At3G22880; CDS cloned into pSUMO (on pET28a); also called At3G22880; not shown: SUMO, N-terminal, kept; HIS, N-terminal, kept) MMASLKAEETSQMQLVEREENDEDEDLFEMIDKLIAQGINAGDVKKLQEAGIHTCNGLMMHTKKNLTGIKGLSEAKVDKICEAAEKIVNFGYMTGSDALIKRKSVVKITTGCQALDDLLGGGIETSAITEAFGEFRSGKTQLAHTLCVTTQLPTNMKGGNGKVAYIDTEGTFRPDRIVPIAERFGMDPGAVLDNIIYARAYTYEHQYNLLLGLAAKMSEEPFRILIVDSIIALFRVDFTGRGELADRQQKLAQMLSRLIKIAEEFNVAVYMTNQVIADPGGGMFISDPKKPAGGHVLAHAATIRLLFRKGKGDTRVCKVYDAPNLAEAEASFQITQGGIADAKD	–	–	binds	binds
SUMO-HIS-DMC1-6KR (natural protein, Arabidopsis thaliana, UniProt Q39009 1-344, looked up, DMC1, Arabidopsis thaliana, AGI At3G22880; CDS with all six lysines K45, K46, K70, K101, K162 and K290 changed to arginine, cloned into pSUMO (on pET28a); not shown: SUMO, N-terminal, kept; HIS, N-terminal, kept) MMASLKAEETSQMQLVEREENDEDEDLFEMIDKLIAQGINAGDVRRLQEAGIHTCNGLMMHTKKNLTGIRGLSEAKVDKICEAAEKIVNFGYMTGSDALIRRKSVVKITTGCQALDDLLGGGIETSAITEAFGEFRSGKTQLAHTLCVTTQLPTNMKGGNGRVAYIDTEGTFRPDRIVPIAERFGMDPGAVLDNIIYARAYTYEHQYNLLLGLAAKMSEEPFRILIVDSIIALFRVDFTGRGELADRQQKLAQMLSRLIKIAEEFNVAVYMTNQVIADPGGGMFISDPKRPAGGHVLAHAATIRLLFRKGKGDTRVCKVYDAPNLAEAEASFQITQGGIADAKD	–	–	binds	binds
